Experimental data published in patent publication US20220206001A1 (TWIST BIOSCIENCE, published 2022).

B1: Ab-7 (antibody, V domains shown)
VH: EVQLLESGGGLVQPGGSLRLSCAASGFTFSDFAMAWVRQAPGKGLEWVSAISGSGDITYYADSVKGRFTISRDNSKNTLYLQMNSLRAEDTAVYYCAREADGLHSPWHFDLWGQGTLVTVSS
VL: DIQMTQSPSSLSASVGDRVTITCRASQSIHTYLNWYQQKPGKAPKLLIYAASALASGVPSRFSGSGSGTDFTLTISSLQPEDFATYYCQQSYSAPPYTFGQGTKVEIK
B2: Ab-89 (antibody, V domains shown)
VH: EVQLVESGGGLVQPGGSLRLSCAASGIPSTLRAMGWFRQAPGKEREFVALINRSGGSQFYADSVKGRFTISADNSKNTAYLQMNSLKPEDTAVYYCAIGRGSWGQGTLVTVSS

Legend:
SARS-CoV S1 monomer = target: T1, SARS-CoV S1 monomer (SARS-CoV, UniProt P59594 14-667); assay: SPR (Carterra LSA)
T1 construct: domain: S1

[1] = target: SARS-CoV-2 nucleocapsid protein (SARS-CoV-2, UniProt P0DTC9 1-419); assay: lateral flow screen with nucleocapsid protein, capture antibody

| Binder | binding result (SARS-CoV S1 monomer) | binding result [1] |
| --- | --- | --- |
| B1 | binds | – |
| B2 | – | binds |
